From the supplement of paper PMC10567573
± gives the standard deviation.

Experiment: protein stability index of a GFP-peptide fusion (GPS, HEK-293T) (PSI 1-6); higher = more stable
[1] = treatment: DMSO, c terminus: a fixed tail appended
[2] = treatment: MLN4924 1 uM, 8 h, c terminus: a fixed tail appended
[3] = treatment: DMSO, c terminus: native
[4] = treatment: MLN4924 1 uM, 8 h, c terminus: native
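Also: 24-mer peptide tiles fused after GFP, lentivirally expressed, FACS-sorted into six equal bins by GFP/DsRed ratio, decoded by Illumina sequencing, PSI is the read-weighted mean bin number.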

Sequence	protein stability index [1]	protein stability index [2]	protein stability index [3]	protein stability index [4]
GEKPYLSPDILEEKHCEFKQLALD [ATL3]	4.42 ± 0.25	4.92 ± 0.12	–	–
VILAVSYMSQVLEKEMKAQEQRLG [GMPPB]	2.27 ± 0.42	2.08 ± 0.17	–	–
ETGKLLWKVRYDTFIVSCKFSPDG [WDR88]	2.55 ± 0.37	2.04 ± 0.26	–	–
CIHDHHCGSQLSSTKGSRSNLSTR [NETO1]	3.04 ± 0.52	3.33 ± 0.37	–	–
HTPGTPKSAILVPSEKKVAIIRTP [MAP2]	3.96 ± 0.057	4.02 ± 0.2	–	–
LKLVSFSKLCTSYSHSSTRDGRRD [GOSR1]	2.81 ± 0.3	2.79 ± 0.35	–	–
AYEFADRDEVRFFKGNKYWAVQGQ [MMP1]	2.54 ± 0.45	2.74 ± 0.61	–	–
PVSLSASQSWHTESLPVSLGPESW [BCL2L13]	3.37 ± 0.26	3.21 ± 0.11	–	–
EDSNWEKSPDNEDSGDSKDIRLTL [GOLPH3L]	5.37 ± 0.16	5.37 ± 0.12	–	–
YARYHQAFADRDQSERQRHESQQL [TEKT4]	2.83 ± 0.71	3.66 ± 0.64	–	–
QVPYPPRQLLRDFQSRLPYQYLHY [P3H4]	2.45 ± 0.072	2.24 ± 0.35	–	–
PRAVFVLLEERRPADSAQLLSLNS [TFE3]	2.29 ± 0.12	2.4 ± 0.2	–	–
EENELTSLAEDLLGLTDPNGGLA [TRADD]	–	–	5.14 ± 0.19	5.06 ± 0.43
FLSGLAFRVFHCTQYVRHSSDPFY [TPH1]	2.67 ± 0.27	2.99 ± 0.4	–	–
NSVNDQTKILVVNAAYFVGKWMKK [SERPINB5]	2.3 ± 0.26	2.48 ± 0.5	–	–
LATTEKKTEQQRRREKAVHRLRVQ [NOP53]	4.34 ± 0.19	4.37 ± 0.17	–	–
FQEWEAHRNLSQLPNFAFSVPLAY [TCF25]	2.73 ± 0.58	2.4 ± 0.25	–	–
KEQRKQMKGRGQLEKPPAPNQAMV [TBC1D10A]	4.95 ± 0.1	5.01 ± 0.34	–	–
AVIRWMHSFNFVLSANLHGGAVVA [CPN1]	2.95 ± 0.71	2.88 ± 0.19	–	–
IPGHGGIMDRFDCQYLMATFVNVY [CDS2]	3 ± 0.46	2.54 ± 0.51	–	–
EAGGKQKAVEEELDAEDRPAWNSK [SLC6A17]	5.62 ± 0.16	5.57 ± 0.15	–	–
VSCPEGRADCASESACSSDSLDEA [PWWP2B]	5.4 ± 0.38	5.41 ± 0.42	–	–

Sequence	protein stability index [1]	protein stability index [2]	protein stability index [3]	protein stability index [4]
LLALAGAVQRLEGALWGLQAQAVQ [SCARA5]	3.33 ± 0.29	3.48 ± 0.14	–	–
ILTADLYSLFVGLFLFGYKFSGLY [SLC35F2]	2.45 ± 0.49	3.27 ± 0.19	–	–
EDEKQRLQNEVRQLTEKLARVNEN [SSNA1]	4.99 ± 0.35	5.17 ± 0.24	–	–
LSLHVKSLGASPTVAGIVGSSYGI [MFSD9]	2.71 ± 0.93	2.42 ± 0.38	–	–
GMLDVADESLTDLEAQPYEAVFLR [P3H4]	4.02 ± 0.47	4.19 ± 0.21	–	–
EESGSSSASEEEDTKPKPTKRKRK [INTS3]	5.55 ± 0.17	5.57 ± 0.29	–	–
KREEEALEERRLSRGEIPTLQRS [PKD2L1]	–	–	5.33 ± 0.22	5.23 ± 0.28
LYAFFTRTHGDMHSLVRSRHRIPE [TRIB3]	2.18 ± 0.046	2.26 ± 0.45	–	–
EPESKNAPHSQGEYDVYSTFQSHE [PPP2R2C]	5.19 ± 0.15	5.19 ± 0.15	–	–
TPVSYRMAKTLVFSKVKTSLGLDH [ACSBG2]	2.33 ± 0.33	2.41 ± 0.18	–	–
LEECLRLLEATCPFGENAEFPADI [NFE2L1]	3.61 ± 0.68	3.61 ± 0.23	–	–
FSPIAIDGMSGLAGVGLSGGAAGA [ELAVL3]	3.04 ± 0.26	3.2 ± 0.26	–	–
TQPTHGQFALTNGDPLNCHSYLSG [NR2F2]	3.69 ± 0.17	3.87 ± 0.23	–	–
PTDYQVNIQIIEYEKKQTLGQNDT [BTBD1]	3.76 ± 0.27	3.91 ± 0.13	–	–
SLARNPAPGVLTNKRKTYTESYIA [ZC2HC1A]	3.22 ± 0.21	3.23 ± 0.41	–	–
PADPTGNLGGGDPKGWRQLAQEAE [OAS1]	5.17 ± 0.19	4.97 ± 0.18	–	–
ALLLGQGANINAQTEETQETALTL [ANKRD17]	4.17 ± 0.32	4.32 ± 0.27	–	–
QLHPPRWYSRLQACQWGGNFLAFS	2.11 ± 0.45	2.26 ± 0.088	–	–
GNAKGKILVLKTDSQDLVASFRVT [RBBP5]	2.17 ± 0.19	2.11 ± 0.28	–	–
ALCATDVKFISNPPSMVAAGSVVA [CCND1]	2.86 ± 0.28	3 ± 0.23	–	–
MSPGDCPPETTETPKCSSPRGQEG [YJU2B]	5.44 ± 0.43	5.5 ± 0.11	–	–
MGQWQLEVGDPAPLGAGNLGPELI [DPCD]	3.42 ± 0.23	3.48 ± 0.2	–	–

Sequence	protein stability index [1]	protein stability index [2]	protein stability index [3]	protein stability index [4]
GLQSPGTLQPPEFLYSHGVPRTLS [TBX5]	3.32 ± 0.27	3.49 ± 0.36	–	–
ISGLRFETQLKTLAQFPNTLLGNP [KCNA1]	2.46 ± 0.23	2.41 ± 0.11	–	–
TFGPIPEFSRATAEKVNQDMCMKV [CRYL1]	3.9 ± 0.25	3.94 ± 0.17	–	–
LPSVFGSLRDSGYFYDPIERDIEI [RSPH3]	2.31 ± 0.37	2.64 ± 0.61	–	–
VAQRSGCEERWLVIDRKVYNISEF [FADS1]	2.11 ± 0.084	2.12 ± 0.32	–	–
SSSYEQFNGELPNGRHKIPESQFP [SRPK2]	4.1 ± 0.24	4.21 ± 0.22	–	–
AAPAAKTRKQAAKKVAPLMAKAIR [ELOA2]	3.78 ± 0.24	4.16 ± 0.21	–	–
LASLPLKADTKGFCNISLFEDLPL [PLAGL1]	2.33 ± 0.19	2.43 ± 0.1	–	–
VLLPETQKRQQLSEDTLTIHGLPT [C22orf31]	3.73 ± 0.092	3.88 ± 0.3	–	–
CVLADRLDCADALLKAGADVNKTD [INVS]	4.4 ± 0.48	4.17 ± 0.42	–	–
RLQSSFWIVDKQHVYIGSAGLDWQ [PLD5]	2.69 ± 0.46	2.26 ± 0.38	–	–
FLDLMETIDKQREEMAKSSRASAA [LRRC45]	3.71 ± 0.11	4.08 ± 0.3	–	–
SAPQQNGQPLRPLVPDASKQRLME [PDLIM7]	4.73 ± 0.34	4.89 ± 0.33	–	–
MDADEGQDMSQVSGKESPPVSDTP [IKZF1]	5.35 ± 0.28	5.28 ± 0.6	–	–
MAQYKGAASEAGRAMHLMKKREKQ [FAM50A]	4.7 ± 0.34	4.47 ± 0.4	–	–
FEEVLSSTAHASAQSLAGGSRRTK [TPD52L1]	5.16 ± 0.16	5.11 ± 0.24	–	–
ETGEAARDPSLRPARTVLVGSLSW	3.06 ± 0.32	2.88 ± 0.27	–	–
LGDLLMPTMAPAGQPAPVSMVPPS [SNAP91]	3.26 ± 0.2	3.51 ± 0.18	–	–
RPQPWLEKEIEEATKKLGFKHPVI [FUT8]	3.643 ± 0.035	3.22 ± 0.37	–	–
ASAQKFSSRSTVPTPAKRRSSALW [NET1]	3.41 ± 0.039	3.5 ± 0.33	–	–
GIVVESNHDSHMAKERAHSTASHS [PDZK1]	–	4.44 ± 0.21	–	–
